From US20130323252A1 (Novartis, published 2013) come the findings set out here.

Positions of bridges follow the written chain, without caps; N, C: chain ends. No end group written: not given here.

The target of test [1] is TMEM16A-GFP fusion protein on HEK293 stable cells (UniProt Q5XXA6). The test can be described thus: flow cytometry on HEK293-TMEM16A cells.
In test [2] the target is T1, cyclic peptide 46_ECD1-3 cys (human, disulfide 1-17 (inferred)).
T1 construct: Same 15-mer as linear peptide 46, flanked by cysteines; also called peptide 46 (cyclic)
T1 peptide: CKDYREPPWSENKYDIC
As to the kind of experiment: peptide microarray, cyclic peptide, Cy5 anti-rat IgG detection. The protocol:
(§1) Both set of peptides were printed on microarray slides in triplicate, incubated with the antibody of interest (12E11) and control antibodies. One is an incubation with an unrelated antibody from the same isotype (rat control IgG2b), the second using only the secondary antibody (anti-rat IgG (H+L) (JIR, 212-175-082) (Label Cy5)) to assess unspecific binding due to the detection antibody. The experiments are performed essentially as described in Maksimov P, et al. 2012, PLoS One 7:e34212. doi:10.1371/journal.pone. 0034212.
(§2) The determination of peptide-antibody binding was performed by RepliTope-analysis where the peptide microarray (triplicate) was incubated with the primary antibody followed by a fluorescently labelled secondary antibody directed against the Fc-part of the primary one. All steps were performed on a TECAN microarray processing station enabling highly reliable and reproducible washing and incubation steps. After performing the incubation steps and subsequent to the final washing steps (to remove the unbound secondary antibodies) the microarrays were dried using a nitrogen stream and scanned in a high resolution microarray scanning system with appropriate wavelength settings. Control incubations were performed with an unrelated antibody having the same isotype to exclude false positive signals.
(§3) The resulting images were analyzed and quantified using spot-recognition software GenePix (Molecular Devices). For each spot, the mean signal intensity was extracted (between 0 and 65535 arbitrary units). For further data evaluation, the MMC2 values were determined. The MMC2 equals the mean value of all three instances on the microarray. Except the coefficient of variation (CV)—standard-deviation divided by the mean value—is larger 0.5, in this case the mean of the two closest values (MC2) is assigned to MMC2.

Test [3] has as its target T2, cyclic peptide 45_ECD1-3 cys (human, disulfide 1-17 (inferred)).
T2 construct: Same 15-mer as linear peptide 45, flanked by cysteines; also called Peptide 45 (cyclic)
T2 peptide: CSRYKDYREPPWSENKC
Described as above. The protocol: as §1, §2, §3

Test [4] has as its target T3, cyclic peptide 44_ECD1-3 cys (human, disulfide 1-17 (inferred)).
T3 construct: Same 15-mer as linear peptide 44, flanked by cysteines; also called Peptide 44 (cyclic)
T3 peptide: CVQISRYKDYREPPWSC
The test is described as above. The protocol: as §1, §2, §3

The next test addresses T4, linear peptide 45_ECD1-3 (human).
T4 peptide: SRYKDYREPPWSENK
As to the kind of experiment: peptide microarray, linear peptide, Cy5 anti-rat IgG detection. The protocol: as §1, §2, §3

The next test deals with T5, linear peptide 46_ECD1-3 (human).
T5 peptide: KDYREPPWSENKYDI
Described as above. The protocol:
as §1, §2, §3

For another test, the target named is T6, linear peptide 44_ECD1-3 (human).
T6 peptide: VQISRYKDYREPPWS
The test is described as above. The protocol: as §1, §2, §3

Test [5] has as its target SP31 (ab64085) Abcam rabbit monoclonal antibody against human TMEM16A. The test can be described thus: peptide pre-incubation of the antibody, western blot of TMEM16A.

TMEM16A-GFP fusion protein on HEK293 stable cells, sequence (Q5XXA6 whole entry, the tested form may be a part): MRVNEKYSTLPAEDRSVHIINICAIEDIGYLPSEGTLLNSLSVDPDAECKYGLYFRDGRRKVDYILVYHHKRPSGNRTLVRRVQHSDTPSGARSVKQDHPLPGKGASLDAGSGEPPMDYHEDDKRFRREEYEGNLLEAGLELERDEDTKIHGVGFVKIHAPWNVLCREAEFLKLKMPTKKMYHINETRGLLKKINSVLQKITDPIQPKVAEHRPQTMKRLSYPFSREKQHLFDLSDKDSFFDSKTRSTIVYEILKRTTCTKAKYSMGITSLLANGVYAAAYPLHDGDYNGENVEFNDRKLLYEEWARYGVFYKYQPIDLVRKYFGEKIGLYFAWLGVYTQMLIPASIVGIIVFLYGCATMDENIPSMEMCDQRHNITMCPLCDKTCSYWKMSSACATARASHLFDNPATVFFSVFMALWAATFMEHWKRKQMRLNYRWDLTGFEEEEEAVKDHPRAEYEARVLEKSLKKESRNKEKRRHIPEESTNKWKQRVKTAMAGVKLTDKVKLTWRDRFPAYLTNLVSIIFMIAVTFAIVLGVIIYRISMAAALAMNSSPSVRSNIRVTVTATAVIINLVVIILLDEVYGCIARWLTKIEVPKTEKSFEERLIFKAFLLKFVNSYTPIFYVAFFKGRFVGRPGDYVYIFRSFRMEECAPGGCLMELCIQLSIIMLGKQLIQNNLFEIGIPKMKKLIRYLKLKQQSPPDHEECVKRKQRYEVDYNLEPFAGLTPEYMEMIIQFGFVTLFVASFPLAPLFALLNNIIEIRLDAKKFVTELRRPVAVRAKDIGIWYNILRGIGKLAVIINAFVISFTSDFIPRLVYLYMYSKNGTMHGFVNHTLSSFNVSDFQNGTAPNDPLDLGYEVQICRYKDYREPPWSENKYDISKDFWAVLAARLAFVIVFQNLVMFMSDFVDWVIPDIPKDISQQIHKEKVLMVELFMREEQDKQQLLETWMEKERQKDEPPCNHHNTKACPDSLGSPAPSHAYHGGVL

For “isotype control antibody (control for 12E11 in flow cytometry)”, in test [1], the median fluorescence intensity was 93.

B1: 12E11 TMEM16A antibody (antibody, V domains shown)
VH: QVQLKESGPGLVQPSQTLTLTCTVSGFSLSNYDMHWVRQSPGKGLDWMGVIWGNGKTQYNSGLTSRLSISRDTSKSQVFLKMNSLQTEDTAIYFCTRSGYYYDGSYYSLFDYWGQGVMVTVSS
VL: DVVLTQTPPTLSATIGQSVSISCRSSQSLLHSNGNTYLNWLLQRPGQPPQLLIYLVSRLESGVPNRFSGSGSGTDFTLKISGVEAEDLGVYYCVQSTHAPAFGGGTKLELK
notes: Rat hybridoma monoclonal made by genetic immunization; The same-isotype control was rat IgG2b, which implies a rat IgG2b constant region
As for B1, the “Signal intensity after subtraction of control signal (AU)” value in test [2] was 24800 AU; in test [3] it was 56600 AU; in test [4], 55900 AU; in the test with linear peptide 45_ECD1-3, 27300 AU; with linear peptide 46_ECD1-3 it was 15100 AU; with linear peptide 44_ECD1-3, 36800 AU.

B2: blocking Peptide #2 (peptide)
peptide: DHEECVKRKQRYEVDYNLE
In the case of B2, the peptide concentration that effectively blocked in test [5] stood at 0.01 µg/mL.
